# Reference: PMC7784741 (Protein Science : A Publication of the Protein Society, 2020)
# Biological target: YAP-binding domain of human TEAD4, TEAD4 217-434 (human, UniProt Q15561 217-434, biotin (N-biotinylated Avi tag))
# Assay: AlphaScreen or HTRF
# Sequence of YAP-binding domain of human TEAD4, TEAD4 217-434 (Q15561 217-434): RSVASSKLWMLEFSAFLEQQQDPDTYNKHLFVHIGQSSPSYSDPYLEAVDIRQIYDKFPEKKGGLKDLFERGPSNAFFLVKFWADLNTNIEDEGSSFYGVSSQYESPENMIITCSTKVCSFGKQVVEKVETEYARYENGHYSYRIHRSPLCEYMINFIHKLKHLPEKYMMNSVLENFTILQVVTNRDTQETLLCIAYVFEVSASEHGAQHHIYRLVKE
binder,measurement,value
DSETDLEALFNAVMNPKTANVPQTVPMRLRKLPDSFFKPPE [YAP 60-100 (partner of TEAD4 in the TR-FRET assay)],binding result,binds
